Positions count from the first letter of the chain named. Names and notes keep the numbering of the source.
T1: human FcγRIIb receptor protein (R&D Systems) (human, UniProt P31994 46-217)
T1 construct: Bought protein injected over captured antibody in Biacore; also called CD32b
T1 sequence (looked up): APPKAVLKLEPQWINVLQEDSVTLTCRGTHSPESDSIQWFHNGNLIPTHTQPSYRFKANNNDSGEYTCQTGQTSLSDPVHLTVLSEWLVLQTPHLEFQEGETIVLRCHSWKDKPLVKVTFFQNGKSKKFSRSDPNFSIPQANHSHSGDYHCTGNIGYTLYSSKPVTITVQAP

T2: human FcγRIIa (131H), His- and GST-tagged (human, UniProt P12318 34-217)
T2 construct: also called H131 FcγRIIa; HIIa; not shown: 6xHis and GST tags of the pTT5 vector
T2 sequence (looked up): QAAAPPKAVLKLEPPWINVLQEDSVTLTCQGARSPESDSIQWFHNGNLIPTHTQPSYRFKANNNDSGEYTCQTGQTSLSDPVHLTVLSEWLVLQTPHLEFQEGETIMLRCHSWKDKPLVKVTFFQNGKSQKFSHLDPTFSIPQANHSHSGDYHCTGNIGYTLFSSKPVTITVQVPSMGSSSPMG

T3: mFcγRIIb (Mus musculus, UniProt P08101)
T3 construct: extracellular region, C-terminal His- and GST-tag; also called mouse FcγRII
T3 sequence (receptor extracellular region, looked up): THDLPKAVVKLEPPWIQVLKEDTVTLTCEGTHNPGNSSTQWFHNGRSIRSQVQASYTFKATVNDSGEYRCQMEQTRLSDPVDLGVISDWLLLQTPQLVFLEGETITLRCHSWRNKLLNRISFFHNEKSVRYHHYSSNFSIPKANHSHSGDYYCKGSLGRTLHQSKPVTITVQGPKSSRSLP

T4: cynoFcγRIIb (Macaca fascicularis, UniProt A0A140HDP4)
T4 construct: extracellular region, C-terminal His- and GST-tag; also called cynomolgus monkey FcγRIIb
T4 sequence (receptor extracellular region): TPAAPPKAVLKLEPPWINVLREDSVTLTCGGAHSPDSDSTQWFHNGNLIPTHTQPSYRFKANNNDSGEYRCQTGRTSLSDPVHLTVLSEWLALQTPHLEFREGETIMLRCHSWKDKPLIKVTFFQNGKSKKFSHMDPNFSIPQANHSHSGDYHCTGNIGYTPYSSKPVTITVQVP

B1: S239D/S267E/H268E (antibody, human IgG1, kappa)
heavy: EVQLVESGGGLVKPGGSLKLSCAASGYTFTSYVMHWVRQAPGKGLEWIGYINPYNDGTKYNEKFQGRVTISSDKSISTAYMELSSLRSEDTAMYYCARGTYYYGTRVFDYWGQGTLVTVSSASTKGPSVFPLAPSSKSTSGGTAALGCLVKDYFPEPVTVSWNSGALTSGVHTFPAVLQSSGLYSLSSVVTVPSSSLGTQTYICNVNHKPSNTKVDKKVEPKSCDKTHTCPPCPAPELLGGPDVFLFPPKPKDTLMISRTPEVTCVVVDVEEEDPEVKFNWYVDGVEVHNAKTKPREEQYNSTYRVVSVLTVLHQDWLNGKEYKCKVSNKALPAPIEKTISKAKGQPREPQVYTLPPSREEMTKNQVSLTCLVKGFYPSDIAVEWESNGQPENNYKTTPPVLDSDGSFFLYSKLTVDKSRWQQGNVFSCSVMHEALHNHYTQKSLSLSPGK
light: DIVMTQSPATLSLSPGERATLSCRSSKSLQNVNGNTYLYWFQQKPGQSPQLLIYRMSNLNSGVPDRFSGSGSGTEFTLTISSLEPEDFAVYYCMQHLEYPITFGAGTKLEIKRTVAAPSVFIFPPSDEQLKSGTASVVCLLNNFYPREAKVQWKVDNALQSGNSQESVTEQDSKDSTYSLSSTLTLSKADYEKHKVYACEVTHQGLSSPVTKSFNRGEC
notes: HuAM4G7 anti-CD19 IgG1 (m1) with these Fc substitutions, EU index; copies: 2 + 2
B2: H268D/L328F/I332E (antibody, human IgG1, kappa)
heavy: B1 heavy with D243S, E271S, E272D, L332F, I336E
light: B1 light
notes: as for B1
B3: S267A/H268D/L328Y (antibody, human IgG1, kappa)
heavy: B1 heavy with D243S, E271A, E272D, L332Y
light: B1 light
notes: as for B1
B4: K326A (antibody, human IgG1, kappa)
heavy: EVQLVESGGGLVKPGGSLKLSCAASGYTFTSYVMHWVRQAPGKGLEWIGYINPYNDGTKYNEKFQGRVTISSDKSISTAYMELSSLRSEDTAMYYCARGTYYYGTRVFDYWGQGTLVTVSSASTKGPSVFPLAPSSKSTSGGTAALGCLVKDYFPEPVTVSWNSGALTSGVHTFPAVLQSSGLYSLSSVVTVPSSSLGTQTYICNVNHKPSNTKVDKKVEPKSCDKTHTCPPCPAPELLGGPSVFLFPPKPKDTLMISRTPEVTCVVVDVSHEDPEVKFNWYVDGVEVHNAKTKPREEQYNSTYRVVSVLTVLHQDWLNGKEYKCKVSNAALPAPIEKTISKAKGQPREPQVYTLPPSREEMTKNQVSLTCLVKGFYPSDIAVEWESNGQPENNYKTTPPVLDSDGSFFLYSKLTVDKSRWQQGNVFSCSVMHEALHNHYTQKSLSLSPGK
light: B1 light
notes: HuAM4G7 anti-CD19 IgG1 (m1) with this Fc substitution, EU index; copies: 2 + 2
B5: K326E (antibody, human IgG1, kappa)
heavy: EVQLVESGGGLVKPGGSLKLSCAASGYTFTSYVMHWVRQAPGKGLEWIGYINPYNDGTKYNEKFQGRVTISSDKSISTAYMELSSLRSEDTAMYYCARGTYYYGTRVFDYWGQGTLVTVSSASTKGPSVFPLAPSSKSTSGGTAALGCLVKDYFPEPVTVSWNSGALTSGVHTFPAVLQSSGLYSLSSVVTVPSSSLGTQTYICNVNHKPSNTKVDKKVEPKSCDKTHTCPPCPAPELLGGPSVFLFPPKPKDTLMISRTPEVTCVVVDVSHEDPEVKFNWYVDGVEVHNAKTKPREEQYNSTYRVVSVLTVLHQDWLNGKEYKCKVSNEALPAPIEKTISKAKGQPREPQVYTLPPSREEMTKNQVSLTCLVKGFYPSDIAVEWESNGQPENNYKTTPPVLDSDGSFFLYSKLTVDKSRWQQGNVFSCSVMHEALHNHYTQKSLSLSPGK
light: B1 light
notes: as for B4
B6: H268E/L328Y/I332E (antibody, human IgG1, kappa)
heavy: B1 heavy with D243S, E271S, L332Y, I336E
light: B1 light
notes: as for B1
B7: A330S (antibody, human IgG1, kappa)
heavy: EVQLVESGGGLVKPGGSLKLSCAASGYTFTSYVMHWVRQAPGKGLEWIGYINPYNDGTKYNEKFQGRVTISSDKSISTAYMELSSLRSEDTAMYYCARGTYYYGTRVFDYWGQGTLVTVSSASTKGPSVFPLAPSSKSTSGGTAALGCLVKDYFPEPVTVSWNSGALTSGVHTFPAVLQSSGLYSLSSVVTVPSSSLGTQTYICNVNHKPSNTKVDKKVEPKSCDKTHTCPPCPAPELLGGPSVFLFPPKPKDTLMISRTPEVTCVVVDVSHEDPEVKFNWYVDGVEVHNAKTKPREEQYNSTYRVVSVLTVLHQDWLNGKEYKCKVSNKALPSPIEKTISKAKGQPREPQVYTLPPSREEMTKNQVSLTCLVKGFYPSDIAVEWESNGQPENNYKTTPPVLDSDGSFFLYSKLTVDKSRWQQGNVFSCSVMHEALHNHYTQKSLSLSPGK
light: B1 light
notes: as for B4
B8: H268D/K326D/L328Y (antibody, human IgG1, kappa)
heavy: B1 heavy with D243S, E271S, E272D, K330D, L332Y
light: B1 light
notes: as for B1
B9: A327D/L328Y/I332E (antibody, human IgG1, kappa)
heavy: B1 heavy with D243S, E271S, E272H, A331D, L332Y, I336E
light: B1 light
notes: as for B1
B10: S267A/L328Y/I332E (antibody, human IgG1, kappa)
heavy: B1 heavy with D243S, E271A, E272H, L332Y, I336E
light: B1 light
notes: as for B1
B11: S239D/A327D/L328Y (antibody, human IgG1, kappa)
heavy: B1 heavy with E271S, E272H, A331D, L332Y
light: B1 light
notes: as for B1
B12: L234W/L328Y/I332E (antibody, human IgG1, kappa)
heavy: B1 heavy with L238W, D243S, E271S, E272H, L332Y, I336E
light: B1 light
notes: as for B1
B13: A330K (antibody, human IgG1, kappa)
heavy: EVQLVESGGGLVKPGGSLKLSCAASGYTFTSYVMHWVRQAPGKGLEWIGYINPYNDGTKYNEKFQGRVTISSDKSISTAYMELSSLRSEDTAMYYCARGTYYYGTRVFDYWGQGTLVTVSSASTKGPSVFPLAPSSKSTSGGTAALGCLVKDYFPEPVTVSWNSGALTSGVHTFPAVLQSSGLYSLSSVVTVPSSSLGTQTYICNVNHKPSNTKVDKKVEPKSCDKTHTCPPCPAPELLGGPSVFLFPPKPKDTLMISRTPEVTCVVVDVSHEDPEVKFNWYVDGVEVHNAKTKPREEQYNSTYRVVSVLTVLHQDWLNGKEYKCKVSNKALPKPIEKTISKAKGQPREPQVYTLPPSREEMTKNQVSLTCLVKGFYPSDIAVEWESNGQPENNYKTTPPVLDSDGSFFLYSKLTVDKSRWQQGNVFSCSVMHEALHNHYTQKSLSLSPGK
light: B1 light
notes: as for B4
B14: L234W/S239D/L328Y (antibody, human IgG1, kappa)
heavy: B1 heavy with L238W, E271S, E272H, L332Y
light: B1 light
notes: as for B1
B15: K326D/L328Y/I332E (antibody, human IgG1, kappa)
heavy: B1 heavy with D243S, E271S, E272H, K330D, L332Y, I336E
light: B1 light
notes: as for B1
B16: K326W (antibody, human IgG1, kappa)
heavy: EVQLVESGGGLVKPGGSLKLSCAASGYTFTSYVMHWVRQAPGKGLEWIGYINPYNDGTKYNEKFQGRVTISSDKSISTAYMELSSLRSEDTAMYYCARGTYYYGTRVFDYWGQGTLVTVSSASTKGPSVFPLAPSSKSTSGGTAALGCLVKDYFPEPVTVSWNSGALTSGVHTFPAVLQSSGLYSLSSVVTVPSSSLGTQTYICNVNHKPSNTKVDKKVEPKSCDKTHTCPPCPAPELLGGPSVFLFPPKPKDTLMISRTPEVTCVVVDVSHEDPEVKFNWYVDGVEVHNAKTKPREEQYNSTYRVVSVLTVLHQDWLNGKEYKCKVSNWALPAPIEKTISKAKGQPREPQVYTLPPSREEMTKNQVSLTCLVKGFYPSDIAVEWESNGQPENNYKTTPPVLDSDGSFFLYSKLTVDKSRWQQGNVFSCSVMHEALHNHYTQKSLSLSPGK
light: B1 light
notes: as for B4
B17: H268D/L328Y/I332E (antibody, human IgG1, kappa)
heavy: B1 heavy with D243S, E271S, E272D, L332Y, I336E
light: B1 light
notes: as for B1

Target: T5, human FcγRI receptor protein (R&D Systems) (human, UniProt P12314 16-288)
T5 construct: also called soluble FcγRI; solFcγRI
T5 sequence (P12314 16-288 limits assumed): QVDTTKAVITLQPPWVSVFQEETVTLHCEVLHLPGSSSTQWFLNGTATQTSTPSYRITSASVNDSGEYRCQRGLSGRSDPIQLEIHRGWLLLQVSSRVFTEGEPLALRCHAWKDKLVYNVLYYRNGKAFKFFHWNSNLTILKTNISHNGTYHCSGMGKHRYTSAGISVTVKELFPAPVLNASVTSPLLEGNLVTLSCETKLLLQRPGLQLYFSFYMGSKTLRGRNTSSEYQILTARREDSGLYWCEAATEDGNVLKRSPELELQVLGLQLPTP
Experiment: SPR
Protocol: (§1) Variants were screened for receptor affinity using Biacore™ technology, also referred to as Biacore herein, a surface plasmon resonance (SPR) based technology for studying biomolecular interactions in real time. SPR measurements were performed using a Biacore 3000 instrument (Biacore, Piscataway, N.J.). A protein A/G (Pierce Biotechnology) CM5 biosensor chip (Biacore) was generated using a standard primary amine coupling protocol. All measurements were performed using HBS-EP buffer (10 mM HEPES pH 7.4, 0.15 M NaCl, 3 mM EDTA, 0.005% vol/vol surfactant P20, Biacore). Antibodies at 20 nM or 50 nM in HBS-EP buffer were immobilized on the protein A/G surface and FcγRs were injected. After each cycle, the surface was regenerated by injecting glycine buffer (10 mM, pH 1.5). Data were processed by zeroing time and response before the injection of FcγR and by subtracting appropriate nonspecific signals (response of reference channel and injection of running buffer). Kinetic analyses were performed by global fitting of binding data with a 1:1 Langmuir binding model using BIAevaluation software (Biacore).

Kd | Binder
0.326 nM | B1

Target: T1, human FcγRIIb receptor protein (R&D …)
Experiment: SPR
Protocol: as §1

Fold vs WT IgG1 | Kd | binding result | Binder
12.3 fold | 119 nM | – | B2
10.7 fold | 137 nM | – | B3
– | – | no binding | B4
6.09 fold | 241 nM | – | B5
8.53 fold | 172 nM | – | B6
0.0635 fold | 23100 nM | – | B7
– | 6.91 nM | – | B1
18.6 fold | 78.9 nM | – | B8
2.31 fold | 636 nM | – | B9
13.5 fold | 109 nM | – | B10
11.9 fold | 123 nM | – | B11
6.32 fold | 232 nM | – | B12
1.55 fold | 947 nM | – | B13
32.8 fold | 44.8 nM | – | B14
2.65 fold | 553 nM | – | B15
3.04 fold | 483 nM | – | B16
4.89 fold | 300 nM | – | B17

Target: T2, human FcγRIIa (131H), His- and …
Experiment: SPR
Protocol: as §1

Kd | Binder
817 nM | B1

Target: T3, mFcγRIIb
Experiment: SPR
Protocol: as §1
(§2) Variant antibodies were tested for their affinity to mouse or cynologous monkey FcγRs using Biacore SPR as described above. Specifically, antibodies were first immobilized on a protein A/G chip to high density, and then followed by injections of the extracellular domain of the mouse or cynologous monkey FcγR of interest. Both association and dissociation phases were tracked in real time using the Biacore technology.

Fold vs WT IgG1 (Kd) | Binder
1.48 fold | B2
32.4 fold | B3
0.164 fold | B4
0.605 fold | B5
1.5 fold | B6
0.054 fold | B7
19.4 fold | B8
1.24 fold | B9
2.63 fold | B10
45.3 fold | B11
0.617 fold | B12
0.296 fold | B13
44.1 fold | B14
1.87 fold | B15
0.429 fold | B16
1.28 fold | B17

Target: T4, cynoFcγRIIb
Experiment: SPR
Protocol: as §1, §2

Fold vs WT IgG1 (Kd) | Binder
4.88 fold | B2
3.26 fold | B3
1.36 fold | B4
1.03 fold | B5
4.16 fold | B6
0.255 fold | B7
9.38 fold | B8
1.02 fold | B9
3.65 fold | B10
1.31 fold | B11
2.04 fold | B12
2.02 fold | B13
5.92 fold | B14
4.78 fold | B15
0.078 fold | B16
4.08 fold | B17
